# Assay results from article PMC10498682, “Selection of optimised ligands by fluorescence-activated bead sorting†”.
# B1: MinE07UA-Biotin (structured_RNA)
# RNA: CGGAUUUAAUCGCCGUAGAAAAGCAUGUCAAAGCCGGAACCGUCC
# modifications: 2'-F on all C and U; 5-phenyl-U at 6,7,43 (U2,U3,U8); 5-iodo-U at 16 (U5); lacks 5' GGA
# B2: MinE07UC-Biotin (structured_RNA)
# RNA: GGAUUUAAUCGCCGUAGAAAAGCAUGUCAAAGCCGGAACCGUCC
# modifications: 2'-F on all C and U; 5-vinyl-U at 4,27 (U1,U7); 5-phenyl-U at 25 (U6); lacks 5' GGAC
# Molecular target: EGFR extracellular domain, Fc fusion (EGFR-Fc) (UniProt P00533 25-644)
# Test: ELISA-type plate assay; EGFR-Fc on protein A 96-well plates, biotinylated aptamer, streptavidin-AP chemiluminescence, n = 3; buffer, salt, pH and temperature not in the material
# Conditions: protein: recombinant; tags: Fc; chain copies: 2; label: 5'-biotin; single strand
row,Binder,Kd [nM]
1,"GGACGGAUUUAAUCGCCGUAGAAAAGCAUGUCAAAGCCGGAACCGUCC (structured_RNA, 2'-F on all C and U; 5-phenyl-U at 9,10,19 (U2,U3,U5); 5-iodo-U at 13 (U4)) [MinE07UB-Biotin]",1.47 ± 0.54
2,"GGACGGAUUUAAUCGCCGUAGAAAAGCAUGUCAAAGCCGGAACCGUCC (structured_RNA, 2'-F on all C and U; 5-phenyl on all 8 U (8,9,10,13,19,29,31,46)) [MinE07-U-Ph-Biotin]",3.59 ± 0.82
3,"GGACGGAUUUAAUCGCCGUAGAAAAGCAUGUCAAAGCCGGAACCGUCC (structured_RNA, 2'-F on all C and U; 5-iodo on all 8 U (8,9,10,13,19,29,31,46)) [MinE07-U-I-Biotin]",2.05 ± 0.26
4,"GGACGGAUUUAAUCGCCGUAGAAAAGCAUGUCAAAGCCGGAACCGUCC (structured_RNA, 2'-F on all C and U; 5-phenyl-U at 9,10,46 (U2,U3,U8); 5-iodo-U at 19 (U5)) [MinE07UA'-Biotin]",3.39 ± 0.71
5,"GGACGGAUUUAAUCGCCGUAGAAAAGCAUGUCAAAGCCGGAACCGUCC (structured_RNA, 2'-F on all C and U; 5-vinyl on all 8 U (8,9,10,13,19,29,31,46)) [MinE07-U-Vi-Biotin]",4.62 ± 0.48
6,"GGACGGAUUUAAUCGCCGUAGAAAAGCAUGUCAAAGCCGGAACCGUCC (structured_RNA, 2'-F on all C and U; 5-vinyl-U at 8,31 (U1,U7); 5-phenyl-U at 29 (U6)) [MinE07UC'-Biotin]",1.11 ± 0.45
7,B1,1.53 ± 0.13
8,B2,1.23 ± 0.1

# Same assay, conditions: protein: recombinant; tags: Fc; chain copies: 2; label: 5'-biotin; single strand; 5' and 3' ends base pair, three loops (predicted)
row,Binder,Kd [nM]
1,"GGACGGAUUUAAUCGCCGUAGAAAAGCAUGUCAAAGCCGGAACCGUCC (structured_RNA, 2'-F on all C and U; A and G ribo) [MinE07-Biotin]",3.7 ± 0.38
